These results are taken from publication PMC5650172, “Impact of the structural integrity of the three-way junction of adenovirus VAI RNA on PKR inhibition”.

One data set concerns the target PKR (full length) (human, UniProt P19525 1-551). The data set is described as follows: EMSA; 5 mM Mg2+; Kd only in figure inset; […], room temperature 10 min, […]; SEC: 50 mM Tris pH 7.5, 100 mM NaCl, 5 mM MgCl2. The settings on record: protein: recombinant; three-way junction RNA, apical and central stem-loops.
For another data set, the target named is PKR1-169 (tandem dsRBMs) (human, UniProt P19525 1-169). The data set is described as follows: SEC co-elution, native PAGE; 5 mM Mg2+; 1.1-fold excess RNA; complex also studied by SAXS; […], room temperature 10 min, […]; SEC: 50 mM Tris pH 7.5, 100 mM NaCl, 5 mM MgCl2. The settings on record: protein: recombinant; three-way junction RNA, apical and central stem-loops.
PKR1-169 (tandem dsRBMs), sequence (P19525 1-169): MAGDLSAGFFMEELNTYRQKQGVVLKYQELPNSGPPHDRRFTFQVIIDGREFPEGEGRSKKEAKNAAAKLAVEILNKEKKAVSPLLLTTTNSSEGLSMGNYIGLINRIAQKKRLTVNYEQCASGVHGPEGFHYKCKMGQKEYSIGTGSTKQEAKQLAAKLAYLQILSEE

PKR (full length), sequence (P19525 whole entry): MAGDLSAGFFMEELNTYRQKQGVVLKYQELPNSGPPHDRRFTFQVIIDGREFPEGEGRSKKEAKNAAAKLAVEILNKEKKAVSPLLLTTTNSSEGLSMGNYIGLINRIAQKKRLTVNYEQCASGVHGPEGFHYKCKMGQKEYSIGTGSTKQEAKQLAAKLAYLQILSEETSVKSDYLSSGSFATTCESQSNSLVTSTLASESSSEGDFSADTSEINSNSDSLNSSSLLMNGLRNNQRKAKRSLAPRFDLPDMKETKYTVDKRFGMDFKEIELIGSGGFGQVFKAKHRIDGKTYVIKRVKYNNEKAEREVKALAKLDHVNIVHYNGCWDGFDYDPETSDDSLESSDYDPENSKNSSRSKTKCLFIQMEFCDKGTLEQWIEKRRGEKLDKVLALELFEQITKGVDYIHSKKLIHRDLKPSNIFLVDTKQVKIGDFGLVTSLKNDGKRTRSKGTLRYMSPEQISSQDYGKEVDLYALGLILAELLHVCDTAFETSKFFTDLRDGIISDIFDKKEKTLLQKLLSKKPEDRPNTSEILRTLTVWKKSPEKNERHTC

B1: VAI dTS (wt RNA) (structured_RNA)
RNA: GGCAAGGGUAUCAUGGCGGACGACCGGGGUUCGAACCCCGGAUCCGGCCGUCCGCCGUGAUCCAUGCGGUUACCGCCCGCGUGUCGAACCCAGGUGUGCC
Take B1: the binding result in the data set with PKR (full length) and in the data set with PKR1-169 (tandem dsRBMs) was “binds” throughout.
